Here are results for two substances from patent US20220073608A1.

The target in assay [1] is hSEMA4D ECD-His (His-tagged human SEMA4D protein extracellular domain, Met22-Arg734) (human) (UniProt Q92854). In words: ELISA, coated hSEMA4D ECD-His; Ab 0.107 nM.
Assay [2] shares this target. Put plainly: ELISA, coated hSEMA4D ECD-His; Ab 0.0427 nM.
For assay [3] the target is unchanged. In words: ELISA, coated hSEMA4D ECD-His; Ab 2.67 nM.
For assay [4] the target is unchanged. In words: ELISA, coated hSEMA4D ECD-His; Ab 13.3 nM.
For assay [5] the target is unchanged. Put plainly: ELISA, coated hSEMA4D ECD-His; Ab 0.00085 nM.
For assay [6] the target is unchanged. Put plainly: ELISA, coated hSEMA4D ECD-His; Ab 0.0213 nM.
The target is the same in assay [7]. In words: ELISA, coated hSEMA4D ECD-His; Ab 0.533 nM.
Assay [8] has the same target. In words: ELISA, coated hSEMA4D ECD-His; Ab 0.000085 nM.
Assay [9] shares this target. In words: ELISA, coated hSEMA4D ECD-His; Ab 0.0533 nM.
The target in assay [10] is monkey SEMA4D, full length, on CHO-K1 cells (CHO-K1 cSEMA4D) (monkey). Put plainly: FACS, CHO-K1 cSEMA4D cells; Ab 66.7 nM.
Assay [11] addresses hSEMA4D ECD-His (His-tagged human SEMA4D protein extracellular domain, Met22-Arg734) (human) (UniProt Q92854). In words: ELISA, coated hSEMA4D ECD-His; Ab 0.0107 nM.
The target is the same in assay [12]. Put plainly: ELISA, coated hSEMA4D ECD-His; Ab 0.00427 nM.
For assay [13], the target named is T1, human SEMA4D, full length, on CHO-K1 cells (CHO-K1 hSEMA4D) (human) (UniProt Q92854).
T1 sequence (looked up): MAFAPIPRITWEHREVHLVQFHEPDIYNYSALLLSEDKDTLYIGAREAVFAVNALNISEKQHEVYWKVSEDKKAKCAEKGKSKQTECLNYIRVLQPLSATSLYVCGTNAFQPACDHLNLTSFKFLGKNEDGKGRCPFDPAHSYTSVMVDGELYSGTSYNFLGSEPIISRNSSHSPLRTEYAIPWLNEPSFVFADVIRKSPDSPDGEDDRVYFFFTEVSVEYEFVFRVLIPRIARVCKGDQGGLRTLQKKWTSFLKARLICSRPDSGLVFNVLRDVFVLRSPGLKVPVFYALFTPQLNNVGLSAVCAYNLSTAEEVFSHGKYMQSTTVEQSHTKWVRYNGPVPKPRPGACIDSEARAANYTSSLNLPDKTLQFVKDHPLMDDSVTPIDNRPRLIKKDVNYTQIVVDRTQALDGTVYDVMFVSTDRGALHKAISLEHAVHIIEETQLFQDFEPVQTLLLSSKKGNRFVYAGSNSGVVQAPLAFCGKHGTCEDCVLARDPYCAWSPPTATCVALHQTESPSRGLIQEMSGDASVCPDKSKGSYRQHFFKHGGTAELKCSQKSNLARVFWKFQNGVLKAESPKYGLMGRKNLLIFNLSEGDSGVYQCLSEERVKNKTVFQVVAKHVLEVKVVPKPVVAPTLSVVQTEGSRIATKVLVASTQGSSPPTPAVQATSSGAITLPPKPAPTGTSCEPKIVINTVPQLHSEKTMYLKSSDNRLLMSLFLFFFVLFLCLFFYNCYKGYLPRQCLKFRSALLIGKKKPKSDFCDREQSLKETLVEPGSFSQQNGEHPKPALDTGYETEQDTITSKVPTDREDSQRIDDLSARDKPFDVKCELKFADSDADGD
In words: FACS, CHO-K1 hSEMA4D cells; Ab 66.7 nM.

The target of assay [14] is hSEMA4D ECD-His (His-tagged human SEMA4D protein extracellular domain, Met22-Arg734) (human) (UniProt Q92854). In words: ELISA, coated hSEMA4D ECD-His; Ab 1.33 nM.
The target is the same in assay [15]. Put plainly: ELISA, coated hSEMA4D ECD-His; Ab 0.00213 nM.
Assay [16] has the same target. Put plainly: ELISA, coated hSEMA4D ECD-His; Ab 0.267 nM.

With Human IgG control (antibody), the OD450 nm turned out to be 0.0717 in assay [1]; 0.0754 in [2]; 0.074 in assay [3]; 0.0766 in assay [4]; 0.0781 in assay [5]; 0.0714 in [6]. The OD450 nm in assay [7] was 0.0748.

Regarding Mouse IgG control (antibody), the OD450 nm in assay [8] is 0.0686; in assay [9], 0.0805; in assay [11], 0.0814; in assay [12], 0.0789; in [14], 0.264; in [15], 0.0718. The same substance displayed an OD450 nm in assay [16] of 0.0791. For the same substance, the figures for the MFI in [10] and in assay [13] were 339 and 214, respectively.
